Laboratory results taken from the RNAGym collection of RNA variant scans (doi:10.1073/pnas.2313332121).

B1: TPR t1 (parent)
chain: GACCAAUCUGCCCUCAGAGCUCGAGAACAUCUUCGGAUGCAGAGGAGGCAGGCUUCGGUGGCGCGAUAGCGCCAACGUCCUCAACCUCCAAUGCAUCCCACCACAUGAUGAUGCCUGAAGAGCCUUGGUUUUUUG

Variants of: B1
Experiment: polymerase ribozyme fitness, log enrichment relative to wild type (log ratio); higher = more active; in vitro selection for triplet polymerase activity
Method in brief: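 After PCR construction and transcription, each subunit's mutant library from a heterodimeric triplet polymerase ribozyme was annealed with a biotinylated primer, the partner subunit and triplets. Incubation was frozen, at −7 °C, and extended constructs were gel-excised, bound to streptavidin beads and amplified by RT-PCR, in one selection round done in triplicate. Fitness is the logarithm of a genotype's enrichment divided by that of the wild type, from inverse-variance-weighted replicate averages of Illumina-sequenced inputs and outputs. The base of the logarithm is 2, and genotypes needed ≥10 input reads and ≥1 read per output.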

First: GACCAAUCUGCCCUCAGAGCUCGAGAACAUCUUCGGAUGAAGAGGAGGCAGGCUUCGGUGGCGCGAUAGCGCCAACGUCCUAAACCUCCAAAGCAUCCCACAACAUGAUGAUGCCUGAAGAGCUUUGGUUUUUUG
Second: GACCAAUCUGCCCUCAGAGCUCGAGAACAUCUUCGGAUGAAUAGGAGGCAGGCUUCGGUGGCGCGAUAGCGCCAACCUCCUCAACCUCCAAUGCAUCCCACCACAUGAUGAUGCCUGAAGAGCCUUGGUUUUUUG
The “polymerase ribozyme fitness (log ratio)” value of the first is lower: -4.16 for the first, -2.77 for the second.

First: GACCAAUCUGCCCUCAGAGCUCGAGAACAUCUUCGGAUGAAGAGGAGGCAGGCUUCGGUGGCGCGAUAGCACCAACGUCCUCAACCUCCAAUGCAUCCCACCACAUGAUGAUACCUGAAGAGCCUUGGUUUUUUG
Second: GACCAAUCUGCCCUCAGAGCUCGAGAACAUCUUCGGAUGAAGAGGAGGCAGGCUUCGGUGGCGCGAUAGCGCCAACGUCCUCAACUUCCAAUGCAUCCCACCACAUGAUGAUGCCUGAAGAGCCUUGGUUUUUUG
The “polymerase ribozyme fitness (log ratio)” value of the first is lower: -3.05 for the first, -1.9 for the second.

First: GACCAAUCUGCCCUCAGAGCUCGAGAACAUCUUCGGAUGAAGAGGAGGCAGGCUUCGGAAGCGCGAUAGCGCCAACGUCCUCAACCUCCAAUGCAUCCCACCACAUGAUGAUGCCUGAAGAGCCUUGGUUUUUUG
Second: GACCAAUCUGCCCUCAGAGCUCGAGAACAUCUUCGGAUGAAUAGUAGGCAGGCUUGGGUGGCGCGAUAGCGCUAACGUCCUCAACCUCCAAUGCAUCCCACCACAUGAUGAUGCCUGAAGAGCCUUGGUUUUUUG
The “polymerase ribozyme fitness (log ratio)” value of the first is higher: -0.777 for the first, -4.17 for the second.

Compared with GACCAAUCUGCCCUCAGAGCUCGAGAACAUCUUCGGAUGAAGAGUAGGCAGGCUUCGGUGGCGCGAUAGCGCCAACGUCCUCAACCUCCAAUGCAUCCCACCACAUGAUAAUGCCUGAAGAGCCUUGGUUUUUUG, GACCAAUCUGCCCUCAGAGCUCGAGAACAUCUUCGGAUGAAGAGGAGGCAGGCUUCGGUGACGCGAUAGCGCUAACGUCCUCAACCUUCAAUGCAUCCCACCACAUGAUGAUUCCUGAAGAGCCUUGGUUUUUUG is lower in “polymerase ribozyme fitness (log ratio)” value: -4.4 for the first, -6.64 for the second.

Going from GACCAAUCUGCCCUCAGAGCUCGAGAACAUCUUCGGAUGAAGACGAGGCAGGCUUCGGUGGCGCGAUAGCGGCAACGUCCUCAACCUCCAAUGCAUCCCACCACAUGAUGAUGCCUGAAGAGCCUUAGUUUUUUG to GACCAAUCUGCCCUCAGAGCUCGAGAACAUCUUCGGAUGAAGAGGAAGCAGGCUUCGGUAGCGCGAUAGCGCCAUCGUCCUCAACUUCCAAUGCAUUCCACCACAUGAUGAUGCCUGAAGAGACUUGGUUUAUUG, the “polymerase ribozyme fitness (log ratio)” value rises from -4.18 to -1.57.

Compared with GACCAAUCUGCCCUCAGAGCUCGAGAACAUCUUCGGAUGAAGAGGAGGCAGGCUUCGGAGGCGCGAUAGCGCCAACGUCCUCAACCUCCAAUGCAUCCCACCACAUGAUGAUGCCUGAAGAGCCUUGGUUUUUUG, GACCAAUCUGCCCUCAGAGCUCGAGAACAUCUUCGGAUGAAGAGGAGGCAGGCUUCGGUGGCGCGAUAGCGCCAACGUCCUCAACCUCGAAUGCAUCCCACCACAGGAUGAUGCCUGAAGAGUCUUGGUUUUUUG is lower in “polymerase ribozyme fitness (log ratio)” value: -1.29 for the first, -5.55 for the second.

First: GACCAAUCUGCCCUCAGAGCUCGAGAACAUCUUCGGAUGAAGAGGAGGCAGGCUUCGGUGGCGCGAUAGCGCCAACGUCCUCAACCUCCAAUGCAUCCCACUACAUGAUGAUGCCUGAAGAGCCUUGGUUUUUUG
Second: GACCAAUCUGCCCUCAGAGCUCGAGAACAUCUUCGGAUGAAGAGUAGGCAGGCUUCGGUGGCGCGAUAGCGCCAACGUCCUCAACCUCCAAUGCAUCCCACCACAUGAUGAUGCCUGAAGAUCCUUGGUUUUUUG
The “polymerase ribozyme fitness (log ratio)” value of the first is lower: -3.15 for the first, -2.79 for the second.

Going from GACCAAUCUGCCCUCAGAGCUCGAGAACAUCUUCGGAUGAAGAGGAGGCAGGCUUCGGUGGCGCGAUAGCGCCAACGUCCUCAACCUCCAAUGCAUCCCACCACAAGAUGAUGCCUGAAGAGCAUUGGUUUUUUG to GACCAAUCUGCCCUCAGAGCUCGAGAACAUCUUCGGAUGAAGAGGAGGCAGGCUUCGGUGGCGCGAUAGCGGCAACGUCCUCAACCUCCAAUGCAUCCCACCACAUGAUGAUGCCUGAUGAGCCUUGGUCAUUUG, the “polymerase ribozyme fitness (log ratio)” value falls from 1.38 to -1.75.

Going from GACCAAUCUGCCCUCAGAGCUCGAGAACAUCUUCGGAUGAAGAGGAGGCAGGCUUCGGUGGCGCGAUAGCUCCAACGUCCUCAACCUCCAAUGCAUCCCACCACAUGAUGAUGCCUCAACAGCCUUGGUUUUUUG to GACCAAUCUGCCCUCAGAGCUCGAGAACAUCUUCGGAUGAAGAGGAGGCAGGCUUCGGUGGCGCGAUAGCGCCAACGUCCUCAACCUCUAAUGCAUCCCACCACAUGAUGAUGCCUGAAGAGCCUUGGUUUUUUG, the “polymerase ribozyme fitness (log ratio)” value rises from -5.63 to -0.912.

Going from GACCAAUCUGCCCUCAGAGCUCGAGAACAUCUUCGGAUGAAGAGAAGGCAGGCUUCGGUGGCGCGAUAGCGCCAACGUCCUCAACCUCCAAUGCAUCCCACCACAUGAUGAUGCCUGAAGAGCCUUGGUUUUUUG to GACCAAUCUGCCCUCAGAGCUCGAGAACAUCUUCGGAUGAAGAGGAGGCAGACUUCGGUAGCGCGAUAGCGCCAACGUCCCCAACCUCCAAUGCUUCCCACCACAUGAUGAUGCCUGAAGAGCCUUGGUUUUUUG, the “polymerase ribozyme fitness (log ratio)” value falls from -2.54 to -3.45.

First: GACCAAUCUGCCCUCAGAGCUCGAGAACAUCUUCGGAUGAAGAGGAGCCAGGCUUCGGUGACGCGAUAGCGCCAACGUCCUCAACCUCCAAUGCAUCCCACCACAUGAUGAUGCCUGAAGAGCCUUGGUUUUUUG
Second: GACCAAUCUGCCCUCAGAGCUCGAGAACAUCUUCGGAUGAAGAGGAGGCAGGCUUCGGUGGCGCGAUAGCGCCAACGUCCUCAACCUCCAAUGCAGCCCACCACAUGAUGAUGCCUGAAGAGCCUUGGUUUUUUG
The “polymerase ribozyme fitness (log ratio)” value of the first is higher: -0.933 for the first, -1.47 for the second.

Going from GACCAAUCUGCCCUCAGAGCUCGAGAACAUCUUCGGAUGAAGAGGAGGCAGGCUUCGGUGGCGCGAUAGCGGCAACGUCCUCAACCUCCAAUGCAUCCCACCACAUGGUGAUGCCUGAAGAGCCUUGGUUUUUUG to GACCAAUCUGCCCUCAGAGCUCGAGAACAUCUUCGGAUGAAGAGGAGGCAGGCUUCGGUGGCGCGAUAGCGCCAACGUCCUCAACCUCCAAUGCAUCCCACCACAAGAUGAUACCUGAAGAGCCUUGGUUUUUUG, the “polymerase ribozyme fitness (log ratio)” value rises from -4.46 to -3.55.

Going from GACCAAUCUGCCCUCAGAGCUCGAGAACAUCUUCGGAUGAAGAGGAGGCAGGCUUCGGUGGCGCGAUAGCGCCAAUGUCCUCAACCUCCAAUGCAUCCCACCACAUGAUGAUGCCUGAAGAGCCUUGGUUUUUUG to GACCAAUCUGCCCUCAGAGCUCGAGAACAUCUUCGGAUGAAGAGGAGGCAGGCUUCGGUGGCGCGAUAGCGCCAACGUCCUUAACCUCCAAUGCAUCCCACCACAUGAUGAUGCCUGAAGAGCCUUGGUUUUUUG, the “polymerase ribozyme fitness (log ratio)” value falls from -1.15 to -1.77.

First: GACCAAUCUGCCCUCAGAGCUCGAGAACAUCUUCGGAUGAAGAGGAGGCAGGCUUCGGUGGCUCGAUAGCGCCAACGUCCUCAACCUCCAAUGCAUCCCACCAAAUGAUGAUGCCUGAAAAGCCUUGGUGUUUUG
Second: GACCAAUCUGCCCUCAGAGCUCGAGAACAUCUUCGGAUGAAGAGGAGGCAGGCUACGGUGGCGCGAUACCGCAAACGUCCUCACCCUCCAAUGCAUCCCACCACAUGAUGAUGCCUGAAAAGCCUUGGUUUUUUG
The “polymerase ribozyme fitness (log ratio)” value of the first is lower: -5.07 for the first, -1.3 for the second.

Compared with GACCAAUCUGCCCUCAGAGCUCGAGAACAUCUUCGGAUGAAGAGGAGGCAGGCUUCGGUGGCGCGAUAGCGCCAACGUCCUCAACCUCCAAUGCAUCCCACCACAUGAUGAUGCCUGAAGAGCCUUGGUUUUGUG, GACCAAUCUGCCCUCAGAGCUCGAGAACAUCUUCGGAUGAAGAGGAGCCAGGCUUCGGUGGCGCGAUAGCGCCAACGUCCUCAACCUCCAAUGCAUCCCACCACAUGAUGAUGCCUGAAGCGCCUUGGGUUUUUG is higher in “polymerase ribozyme fitness (log ratio)” value: -1.45 for the first, -0.25 for the second.

Going from GACCAAUCUGCCCUCAGAGCUCGAGAACAUCUUCGGAUGAAGAGGAGGCAGGCUUCGGUGGCUCGAUAGCGCCAACGUCCUCAACCUCCAAUGCAUCCCACCACAUGAUGAUGCCUGAAGAGCCUUGGUUUUUUG to GACCAAUCUGCCCUCAGAGCUCGAGAACAUCUUCGGAUGAAGAGGAGGCAGGCUUCGGUGGCACGAUAGCGCCAACGUCCUCAACCUCCAAUGCAUCCCACCACAUGAUGAUGCCUGAAGAGCCUUGGUUUUUUG, the “polymerase ribozyme fitness (log ratio)” value rises from -3.37 to -2.68.

Going from GACCAAUCUGCCCUCAGAGCUCGAGAACAUCUUCGGAUGAAGAGGAGGCAGGCUUCGCUGGCGCGAUAGCGGCAACGGACUCAACCUCCAAUGCAUCCCACCACAUGAUGAUGCCUGAAGAGCCUUGGUUUUUUG to GACCAAUCUGCCCUCAGAGCUCGAGAACAUCUUCGGAUGAAGAGGAGGCAGGCUUCCGUGGCGCGAUAGCGCCAACGUCCGGAACCUCCAAUGCAUACCACCACAUGAUGUUGCCUGAAGAGCCUUGGUUUUUUG, the “polymerase ribozyme fitness (log ratio)” value falls from -5.64 to -6.79.

First: GACCAAUCUGCCCUCAGAGCUCGAGAACAUCUUCGGAUGAAGAGGAGGCAGGCUUCGGUGGCGCGAUACCGCCAACGUCCUCAACCUCCAAUGCAUCCCACCACGUGAUGAUGCCUGAAGAGCCUUGGUUUUUUG
Second: GACCAAUCUGCCCUCAGAGCUCGAGAACAUCUUCGGAUGAAGAGGAGGCAGGCUUCGGUGGCGCGAUAGCUCCAACGUCCUCAACCUCCAAUGCAUCCCACCACAUGAUGAUGCCUGAAGAGCCUUGGUUAUUUG
The “polymerase ribozyme fitness (log ratio)” value of the first is lower: -6.71 for the first, -2.31 for the second.

Going from GACCAAUCUGCCCUCAGAGCUCGAGAACAUCUUCGGAUGAAGAGGAGGCAGGCUUCGGUGGCUCGAUAGCGCCAACGUACUCAACCUCCAAUGCAUCCCACCACAUGAUGAUGCCUGAAGAGCCUUGGUGUUUUG to GACCAAUCUGCCCUCAGAGCUCGAGAACAUCUUCGGAUGAAGAGGAGGCAGGCUUCGGUGGCGCGAUAGCGCCAACGUCCUCAACCUCUAAUGCAUCCCACCACAUGAUGAUGCCUAAAGGGCCUUGGUUUUUUG, the “polymerase ribozyme fitness (log ratio)” value rises from -4.83 to -0.101.

Compared with GACCAAUCUGCCCUCAGAGCUCGAGAACAUCUUCGGAUGAAGAAUAGGCCGGCUUCGGUGGCGCGAUAGCGCCAACGUCCUCAACCUCCAAUACAUCCCACCACAUGAUGAUGCCUGAAGAGCCUUGGUUUUUUG, GACCAAUCUGCCCUCAGAGCUCGAGAACAUCUUCGGAUGAAGAGUAGGCAGGCUUCGGUGGCGCGAUAGCGCCAACGUCCUCAACCUCCGAUGCAUCCCACCACAUGAUGAUGCCUGAAGAGCCUUGGUUUUUUG is higher in “polymerase ribozyme fitness (log ratio)” value: -5.29 for the first, -1.17 for the second.

First: GACCAAUCUGCCCUCAGAGCUCGAGAACAUCUUCGGAUGAAGAGGAGGCAGGCUUCGGUGGCACGAUAGCGCCAACGUCCUCAACCUCCAAUGCAUCCCACCACAUGAUGAUGCCUGAAGAGCCUUGUUUUUUUG
Second: GACCAAUCUGCCCUCAGAGCUCGAGAACAUCUUCGGAUGAAGAGGAGGCAGGCUUCGGUGGCGCGAUAGCGCCAACGUCUUCAACCUCUAAUGCAUCCCACCACAUGAUGAUGCCUAAAGGGCCUUGGUUUUUUG
The “polymerase ribozyme fitness (log ratio)” value of the first is lower: -4.66 for the first, -0.909 for the second.
